Assay results: PMC9884143 (The Journal of Biological Chemistry, 2023)
Substitutions are numbered along the chain they refer to.

B1: CoV2-YD-35 (VHH)
VHH: DVQLVESGGGLVQAGDSLRLSCTASGRTFTTNAMGWFRQAPGKEREFVAAISWSYGTTYYSDPVEGRFTISRSNAKNTVYLQMNSLKPDDTAVYYCTLRSRFNAAAWTTEAAFDYWGQGTQVTVS
B2: CoV2-YD-36 (VHH)
VHH: B1 VHH with D1Q, S52T
B3: CoV2-YD-38 (VHH)
VHH: B1 VHH with T23A, S54N, Y55S, E65K, S73D, D89G, A105Y, A111N
B4: CoV2-YD-37 (VHH)
VHH: B1 VHH with S54N, G56D
B5: Rescue-1 (VHH)
VHH: DVQLVESGGGLVQAGDSLRLSCTASGRTFTTNAMGWFRQAPGKEREFVAAITWSYGTTYYSDPVEGRFTISRDNAKNTVYLQMNSLKPEDTAVYYCFYERLAWDTSTYWGQGTQVTVS
B6: Rescue-3 (VHH)
VHH: B5 VHH with T52S, S54N, Y55S, E65K
B7: Rescue-2 (VHH)
VHH: B5 VHH with T52S, S54N, G56D
B8: CoV2-YD-13 (VHH)
VHH: QVQLVESGGGLVQAGGSLRLSCAASGFTFDDYAIGWFRQAPGKEREGVSCISSSGGFTNYADSVKGRFTISSDNAKNTVYLQMNSLKPEDTAVYYCAVVVNGYGLDEWAYDYWGQGTQVTVS
B9: CoV2-YD-11 (VHH)
VHH: QVQLVESGGGLVQAGGSLRLSCVVSGTTFSRYDMGWYRQAPGKARETVATISRSGTTNYAYFVKGRFTITRDNAKNTVYLQMNSLKPEDTAVYYCYIFGLDYWGQGTQVTVS
B10: CoV2-YD-5 (VHH)
VHH: QVQLVESGGGLVQAGGSLRLSCVASGTTISTYNLLWFRQAPGQQREWVASISSGGDTSYAGSVKGRFTISRDNTENTMYLQMNSLKPEDTAVYYCHGANAAHGMDYWGKGTQVTVS
B11: CoV2-YD-12 (VHH)
VHH: QVQLVESGGGLVQAGGSLRLSCAASGSTFSRLNILWWRQAAGKPREWVATSTDGGTRNYAAAVKGRFTISRDNAKNTVYLQMNSLKPEDTAVYYCYTPDYWGQGTQVTVS
B12: CoV2-YD-14 (VHH)
VHH: QVQLVESGGGLVQAGGSLRLSCSASGNTFSTYSLSWYRQAPGKQREFVAAISSGGSTSYANSVKGRFSISRDNAKKTMYLQMNSLKPEDTAVYYCYVVTTLMDYWGQGTQVTVS

What follows are binders tested against SARS-CoV-2 Spike receptor-binding domain (RBD), Delta variant (SARS-CoV-2, Delta (B.1.617.2; L452R, …, strain).
B1 was tested, and the Kd was 0.185 nM. For B2, the Kd was 0.022 nM. For B3, the Kd was 0.256 nM. Work on B4 yielded a Kd of 2.4 nM. With B5 the Kd was 14.1 nM. B6 showed a Kd of 27.1 nM. B7 showed a Kd of 11.2 nM. For B8, the Kd was 45.4 nM.

Each binder was assayed against SARS-CoV-2 Spike receptor-binding domain (RBD), B.1.1.529 (Omicron) variant (SARS-CoV-2, Omicron B.1.1.529 (BA.1 RBD), strain).
B9 was tested, and the Kd was 0.721 nM. Binder B10 has a Kd of 0.66 nM. Work on B1 yielded a Kd of 0.465 nM. For B2, the Kd was 0.263 nM. With B3 the Kd was 2.82 nM. In the case of B4, the Kd is reported as 1.56 nM. B11 showed a Kd of 0.416 nM. For B5, the Kd was 7.02 nM. In the case of B6, the Kd is reported as 60.6 nM. B7 was tested, and the Kd was 27 nM. Binder B12 has a Kd of 0.655 nM. In the case of B8, the Kd is reported as 3.64 nM.
